Here are results for one substance from PMC4128672.

This experiment concerns the target CDC42 (cell division cycle 42) (rat (endogenous in rat testis)) (UniProt Q8CFN2). As to the kind of experiment: proximity ligation; Duolink II in situ PLA on Bouin-fixed, paraffin-embedded rat testis sections; antigen retrieval in citrate buffer (10 mM, pH 6.0, 0.05% Tween 20); anti-ApoH goat polyclonal 2.5 ug/ml and anti-CDC42 rabbit polyclonal 5 ug/ml; probes anti-rabbit PLUS and anti-goat MINUS; controls with one primary antibody only.
UniProt Q8CFN2, sequence (Q8CFN2 whole entry): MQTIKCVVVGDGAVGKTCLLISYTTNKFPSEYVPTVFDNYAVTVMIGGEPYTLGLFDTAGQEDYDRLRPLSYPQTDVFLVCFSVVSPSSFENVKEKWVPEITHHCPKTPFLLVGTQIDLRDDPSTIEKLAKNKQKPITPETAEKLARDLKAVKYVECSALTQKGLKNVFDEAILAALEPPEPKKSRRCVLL

Turning to “APOH (apolipoprotein H) (from UniProt P26644 20-297) (natural protein)”, the PLA signals per 0.25 mm^2 (PLA signals/0.25 mm^2) was determined as 312.
